# pKd: −log10 of the molar value. Where two headings read alike, the source gives them in different places.
# Columns and labels:
# Assay in all cases: SPR
# [1] = biological target: Sbi-III-IV (amino acids 150-266), domains III and IV of Sbi (S. aureus strain Mu50) (UniProt Q99RL2)
# [2] = biological target: Sbi-IV (amino acids 197-266), domain IV of Sbi (S. aureus strain Mu50) (UniProt Q99RL2)
# [3] = biological target: Sbi-III-IV (amino acids 150-266), domains III and IV of Sbi (S. aureus strain Mu50) (UniProt Q99RL2); remark: listed apart in the source
substance,measurement,setting,value
"C3dg, recombinant (from UniProt P01024 955-1303) (domain or fragment)",pKd,[1],6.15
same,pKd,[2],6.10
same,pKd,[3],5.85

# Source: publication PMC2649420
